The record followed here is IntAct's records for PubMed 17986458.

For the test, the target named is VHL, P40337-3.

For “Diacylglycerol kinase iota (Homo sapiens), O75912 P147A;P895A”, the “effect of a mutation on the interaction” value is reported as “disrupting interaction”.

Regarding “Diacylglycerol kinase iota (Homo sapiens), O75912 P895A”, the “effect of a mutation on the interaction” value is listed as “disrupting interaction”.
